Biological target: T1, Bacteriorhodopsin, P02945
T1 chain: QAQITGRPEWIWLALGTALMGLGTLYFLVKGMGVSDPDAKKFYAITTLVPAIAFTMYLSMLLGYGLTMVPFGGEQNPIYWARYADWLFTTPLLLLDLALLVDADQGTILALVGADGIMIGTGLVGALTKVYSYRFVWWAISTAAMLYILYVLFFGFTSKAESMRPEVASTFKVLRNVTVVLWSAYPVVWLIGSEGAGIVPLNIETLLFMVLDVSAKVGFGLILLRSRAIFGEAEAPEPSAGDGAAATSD
Experiment: SEC
Conditions: remark: other sources report otherwise

B1: Bacteriorhodopsin, P02945 14-262 (natural protein)
chain: QAQITGRPEWIWLALGTALMGLGTLYFLVKGMGVSDPDAKKFYAITTLVPAIAFTMYLSMLLGYGLTMVPFGGEQNPIYWARYADWLFTTPLLLLDLALLVDADQGTILALVGADGIMIGTGLVGALTKVYSYRFVWWAISTAAMLYILYVLFFGFTSKAESMRPEVASTFKVLRNVTVVLWSAYPVVWLIGSEGAGIVPLNIETLLFMVLDVSAKVGFGLILLRSRAIFGEAEAPEPSAGDGAAATSD
- stoichiometry N: 3 per nanodisc

— PMC5051544
